These results are taken from patent publication US20160051688A1 (Indiana University Research and Technology Corporation, priority 2010, published 2016).

The target in one experiment is T1, GPR119 (Homo sapiens, UniProt Q8TDV5).
T1 construct: expressed in transfected cells; host or cells: CHO
T1 sequence (Q8TDV5 1-335): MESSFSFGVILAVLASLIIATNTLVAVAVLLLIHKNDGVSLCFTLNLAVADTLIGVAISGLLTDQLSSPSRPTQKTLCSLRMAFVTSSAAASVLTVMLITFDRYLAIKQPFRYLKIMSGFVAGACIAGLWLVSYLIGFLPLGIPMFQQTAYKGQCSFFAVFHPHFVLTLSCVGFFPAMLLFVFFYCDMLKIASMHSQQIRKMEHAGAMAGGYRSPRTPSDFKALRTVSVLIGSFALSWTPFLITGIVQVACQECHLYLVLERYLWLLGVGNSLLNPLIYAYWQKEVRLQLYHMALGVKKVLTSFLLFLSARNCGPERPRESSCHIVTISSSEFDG
The conditions noted are these: CHO cells expressing GPR119; cited from earlier work.

For another experiment, the target named is GLP-1 receptor (UniProt P43220). Description: cell-based or functional assay.
A further experiment deals with glucagon receptor (UniProt P47871). Description: cell-based or functional assay.
Sequence of glucagon receptor (P47871 26-477 limits assumed): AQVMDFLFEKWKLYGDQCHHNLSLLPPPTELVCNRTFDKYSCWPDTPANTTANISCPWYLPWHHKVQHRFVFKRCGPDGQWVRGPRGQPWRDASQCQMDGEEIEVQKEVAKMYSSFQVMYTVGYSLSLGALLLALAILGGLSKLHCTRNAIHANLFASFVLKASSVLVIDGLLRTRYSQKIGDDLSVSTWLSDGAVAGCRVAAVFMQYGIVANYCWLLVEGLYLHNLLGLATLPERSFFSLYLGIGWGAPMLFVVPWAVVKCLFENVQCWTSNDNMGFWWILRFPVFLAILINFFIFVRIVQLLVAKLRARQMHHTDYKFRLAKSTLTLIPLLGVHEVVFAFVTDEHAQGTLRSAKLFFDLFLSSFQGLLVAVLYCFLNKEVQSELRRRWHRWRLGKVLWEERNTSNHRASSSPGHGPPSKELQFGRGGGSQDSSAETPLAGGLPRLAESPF

Sequence of GLP-1 receptor (P43220 24-463 limits assumed): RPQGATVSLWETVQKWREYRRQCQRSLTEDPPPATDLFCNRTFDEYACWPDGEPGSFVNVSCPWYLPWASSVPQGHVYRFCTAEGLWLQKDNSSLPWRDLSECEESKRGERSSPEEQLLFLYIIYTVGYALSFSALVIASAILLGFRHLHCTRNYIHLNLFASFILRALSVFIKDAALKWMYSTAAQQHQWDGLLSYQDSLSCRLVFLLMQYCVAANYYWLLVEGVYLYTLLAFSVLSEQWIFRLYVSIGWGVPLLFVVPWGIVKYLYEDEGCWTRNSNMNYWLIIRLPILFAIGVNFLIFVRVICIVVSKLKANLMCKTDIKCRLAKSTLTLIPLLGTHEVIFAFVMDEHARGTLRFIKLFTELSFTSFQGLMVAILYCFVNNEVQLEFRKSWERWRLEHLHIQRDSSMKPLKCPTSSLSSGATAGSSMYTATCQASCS

Take `CCCCCCCCCCCCCCCCOC[C@@H](O)COP(=O)([O-])OCC[N+](C)(C)C` [lyso-platelet activating factor]: the cAMP levels entry at GPR119 is “increased cAMP levels”.
For the molecule “D9, K12E16(Lactam) glucagon(6-39) Cex peptide (Peptide 4 of Table 13)”, in the experiment with GLP-1 receptor, the GLP-1 EC50 turned out to be 18 nM and the GLP-1 ECso is 119 nM. Further, in the experiment with glucagon receptor, the Glu ICso amounted to 828 nM and the Glucagon IC50 turned out to be 828 nM.
In the experiment with GLP-1 receptor, “E9, E16K20(lactam) glucagon(6-39) Cex peptide (Peptide 3 of Table 13)” yielded a GLP-1 EC50 of 36 nM and a GLP-1 ECso of 36 nM. In the experiment with glucagon receptor, this molecule had a Glu ICso of 42 nM and a Glucagon IC50 of 42 nM.
In the experiment with glucagon receptor, “E9, K12, E16 glucagon(6-39) Cex peptide (Peptide 1 of Table 13)” gave a Glu ICso of 762 nM and a Glucagon IC50 of 762 nM.
As to “E9, K12E16(lactam) glucagon(6-39) Cex peptide (Peptide 2 of Table 13)”, in the experiment with GLP-1 receptor, the GLP-1 EC50 came to 63 nM and the GLP-1 ECso is 63 nM. Further, in the experiment with glucagon receptor, the Glu ICso is 2010 nM and the Glucagon IC50 came out at 2010 nM.
Molecule “[E9, E16K20(lactam), D28]G(2~29) (peptide)” came in with a Glucagon IC50 (nM); PA = partial antagonist with glucagon receptor of 49 nM.
With platelet-activating factor, on GPR119, the cAMP levels result is listed as “increased cAMP levels”.
